According to publication PMC2715106 (PLoS ONE, 2009):

Columns and labels:
Conditions in all cases: both partners purified
[1] = molecular target: T1, terbium-labeled core RNA polymerase (E. coli, UniProt P0A7Z4 1-329; P0A8V2 1-1342; P0A8T7 1-1407; P0A800 1-91, CS124-DTPA-Phe-NCS-Tb-chelate on randomly labeled lysine residues of core RNAP, 1:1 ratio of Tb-chelate to molecule of core; which subunit is not told | CS124-DTPA-Phe-NCS-Tb-chelate on randomly …); test: FRET or BRET; LRET saturation binding, homogeneous; fluorescein-sigma serially diluted, 10 nM Tb-core; TG (50 mM Tris-HCl pH 7.9, 5% glycerol) + 100 mM KGlu; 1 h at 22°C; [core]0 set at 5 nM in the fit
T1 construct: E. coli RNA polymerase α subunit; E. coli RNA polymerase β subunit; E. coli RNA polymerase β' subunit; E. coli RNA polymerase ω subunit; also called Tb-core; Tb-core RNAP; copies: 2 + 1 + 1 + 1

[2] = molecular target: T1, terbium-labeled core RNA polymerase; test: FRET or BRET; LRET saturation binding, homogeneous; fluorescein-sigma serially diluted, 10 nM Tb-core; TG (50 mM Tris-HCl pH 7.9, 5% glycerol) + 100 mM NaCl; 1 h at 22°C; [core]0 set at 5 nM in the fit
[3] = molecular target: T1, terbium-labeled core RNA polymerase; test: FRET or BRET; LRET saturation binding, homogeneous; fluorescein-sigma serially diluted, 10 nM Tb-core; TG (50 mM Tris-HCl pH 7.9, 5% glycerol) + 250 mM KGlu; 1 h at 22°C; [core]0 set at 5 nM in the fit
[4] = molecular target: T1, terbium-labeled core RNA polymerase; test: FRET or BRET; LRET saturation binding, homogeneous; fluorescein-sigma serially diluted, 10 nM Tb-core; TG (50 mM Tris-HCl pH 7.9, 5% glycerol) + 250 mM NaCl; 1 h at 22°C; [core]0 set at 5 nM in the fit
[5] = molecular target: T1, terbium-labeled core RNA polymerase; test: FRET or BRET; LRET saturation binding, homogeneous; fluorescein-sigma serially diluted, 10 nM Tb-core; TG (50 mM Tris-HCl pH 7.9, 5% glycerol) + 500 mM KGlu; 1 h at 22°C; [core]0 set at 5 nM in the fit
[6] = molecular target: T1, terbium-labeled core RNA polymerase; test: FRET or BRET; LRET saturation binding, homogeneous; fluorescein-sigma serially diluted, 10 nM Tb-core; TG (50 mM Tris-HCl pH 7.9, 5% glycerol) + 500 mM NaCl; 1 h at 22°C; [core]0 set at 5 nM in the fit

T1 sequence (P0A7Z4 whole entry, chain 1 of 4): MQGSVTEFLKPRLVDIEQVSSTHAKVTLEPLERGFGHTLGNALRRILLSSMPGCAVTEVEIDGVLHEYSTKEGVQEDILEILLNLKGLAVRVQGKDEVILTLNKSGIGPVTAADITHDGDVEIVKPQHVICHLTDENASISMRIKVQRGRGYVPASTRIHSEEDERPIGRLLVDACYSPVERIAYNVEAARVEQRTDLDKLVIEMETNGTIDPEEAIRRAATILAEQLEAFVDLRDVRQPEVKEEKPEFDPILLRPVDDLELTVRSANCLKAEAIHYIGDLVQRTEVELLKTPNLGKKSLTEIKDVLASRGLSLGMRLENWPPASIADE
T1 sequence (P0A8V2 whole entry, chain 2 of 4): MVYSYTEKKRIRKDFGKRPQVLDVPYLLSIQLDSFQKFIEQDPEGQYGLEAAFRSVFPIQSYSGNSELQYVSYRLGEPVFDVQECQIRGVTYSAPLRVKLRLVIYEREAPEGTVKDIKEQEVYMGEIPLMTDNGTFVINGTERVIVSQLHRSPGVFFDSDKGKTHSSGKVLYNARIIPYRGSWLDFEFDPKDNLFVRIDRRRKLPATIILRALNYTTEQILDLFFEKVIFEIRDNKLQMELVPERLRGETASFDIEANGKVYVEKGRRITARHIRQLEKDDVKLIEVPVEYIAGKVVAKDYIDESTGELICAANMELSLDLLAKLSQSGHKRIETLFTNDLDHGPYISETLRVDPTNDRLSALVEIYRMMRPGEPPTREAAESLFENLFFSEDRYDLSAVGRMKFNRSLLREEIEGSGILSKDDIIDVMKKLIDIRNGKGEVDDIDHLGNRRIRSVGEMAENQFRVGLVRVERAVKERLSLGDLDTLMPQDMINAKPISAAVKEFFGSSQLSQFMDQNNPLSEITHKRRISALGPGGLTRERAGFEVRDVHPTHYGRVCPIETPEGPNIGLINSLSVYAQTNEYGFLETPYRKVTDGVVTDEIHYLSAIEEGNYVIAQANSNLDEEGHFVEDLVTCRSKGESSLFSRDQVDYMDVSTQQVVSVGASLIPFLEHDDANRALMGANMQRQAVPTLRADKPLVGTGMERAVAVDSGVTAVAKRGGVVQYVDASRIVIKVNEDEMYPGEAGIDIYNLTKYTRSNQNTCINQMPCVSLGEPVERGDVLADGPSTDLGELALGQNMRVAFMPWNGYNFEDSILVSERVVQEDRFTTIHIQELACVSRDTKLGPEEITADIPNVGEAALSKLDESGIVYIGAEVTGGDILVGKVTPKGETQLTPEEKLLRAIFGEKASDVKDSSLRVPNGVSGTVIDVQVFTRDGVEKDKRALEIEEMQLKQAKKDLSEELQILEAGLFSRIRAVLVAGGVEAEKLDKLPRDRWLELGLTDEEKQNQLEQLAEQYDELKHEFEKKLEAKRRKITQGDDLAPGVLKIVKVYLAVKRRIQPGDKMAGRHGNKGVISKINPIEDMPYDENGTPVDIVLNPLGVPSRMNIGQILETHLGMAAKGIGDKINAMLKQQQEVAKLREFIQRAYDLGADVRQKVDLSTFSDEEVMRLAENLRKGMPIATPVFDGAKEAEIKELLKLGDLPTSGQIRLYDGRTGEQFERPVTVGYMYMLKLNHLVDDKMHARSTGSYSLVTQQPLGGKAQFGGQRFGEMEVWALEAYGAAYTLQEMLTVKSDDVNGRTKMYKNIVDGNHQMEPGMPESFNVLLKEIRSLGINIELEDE
T1 sequence (P0A8T7 whole entry, chain 3 of 4): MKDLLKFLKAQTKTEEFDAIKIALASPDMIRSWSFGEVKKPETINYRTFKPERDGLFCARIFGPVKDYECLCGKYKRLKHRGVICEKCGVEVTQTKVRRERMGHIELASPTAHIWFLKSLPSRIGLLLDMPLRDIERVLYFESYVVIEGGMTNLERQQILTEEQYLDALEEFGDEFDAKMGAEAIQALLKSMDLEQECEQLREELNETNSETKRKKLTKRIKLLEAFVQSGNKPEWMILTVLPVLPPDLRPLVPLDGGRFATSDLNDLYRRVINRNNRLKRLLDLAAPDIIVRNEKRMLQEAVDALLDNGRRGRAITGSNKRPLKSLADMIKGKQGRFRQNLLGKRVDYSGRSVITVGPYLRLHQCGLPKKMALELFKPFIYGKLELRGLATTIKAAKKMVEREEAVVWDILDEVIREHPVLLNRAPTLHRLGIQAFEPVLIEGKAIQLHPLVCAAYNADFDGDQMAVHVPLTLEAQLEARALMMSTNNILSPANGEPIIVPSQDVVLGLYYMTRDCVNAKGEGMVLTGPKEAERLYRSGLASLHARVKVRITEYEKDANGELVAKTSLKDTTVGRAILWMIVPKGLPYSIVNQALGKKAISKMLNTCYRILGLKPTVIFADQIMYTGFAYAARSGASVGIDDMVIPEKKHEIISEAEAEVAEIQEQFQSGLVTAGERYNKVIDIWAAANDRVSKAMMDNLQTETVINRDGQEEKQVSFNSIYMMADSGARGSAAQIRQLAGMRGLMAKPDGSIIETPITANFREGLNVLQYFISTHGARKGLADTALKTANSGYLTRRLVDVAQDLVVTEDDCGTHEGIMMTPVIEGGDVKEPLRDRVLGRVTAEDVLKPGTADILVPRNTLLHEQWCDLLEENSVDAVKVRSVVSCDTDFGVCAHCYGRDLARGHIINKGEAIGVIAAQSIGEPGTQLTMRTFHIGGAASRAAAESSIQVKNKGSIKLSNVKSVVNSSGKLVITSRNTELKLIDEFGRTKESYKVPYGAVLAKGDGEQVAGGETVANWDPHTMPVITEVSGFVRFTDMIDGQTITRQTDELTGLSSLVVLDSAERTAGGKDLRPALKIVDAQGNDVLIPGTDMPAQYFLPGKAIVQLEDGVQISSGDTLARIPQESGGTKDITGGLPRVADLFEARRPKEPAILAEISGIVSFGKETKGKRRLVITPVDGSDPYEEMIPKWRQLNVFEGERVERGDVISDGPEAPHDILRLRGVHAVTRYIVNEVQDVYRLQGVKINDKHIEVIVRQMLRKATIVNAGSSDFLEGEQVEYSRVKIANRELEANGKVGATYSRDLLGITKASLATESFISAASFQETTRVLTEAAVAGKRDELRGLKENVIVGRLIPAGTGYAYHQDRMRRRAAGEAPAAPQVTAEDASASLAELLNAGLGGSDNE
T1 sequence (P0A800 whole entry, chain 4 of 4): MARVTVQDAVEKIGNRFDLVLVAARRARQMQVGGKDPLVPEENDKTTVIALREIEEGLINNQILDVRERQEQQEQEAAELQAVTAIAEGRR

B1: fluorescein-σ32 (natural protein, E. coli, UniProt P0AGB3 1-284, looked up)
chain: MTDKMQSLALAPVGNLDSYIRAANAWPMLSADEERALAEKLHYHGDLEAAKTLILSHLRFVVHIARNYAGYGLPQADLIQEGNIGLMKAVRRFNPEVGVRLVSFAVHWIKAEIHEYVLRNWRIVKVATTKAQRKLFFNLRKTKQRLGWFNQDEVEMVARELGVTSKDVREMESRMAAQDMTFDLSSDDDSDSQPMAPVLYLQDKSSNFADGIEDDNWEEQAANRLTDAMQGLDERSQDIIRARWLDEDNKSTLQELADRYGVSAERVRQLEKNAMKKLRAAIEA
modifications: fluorescein on randomly labeled lysine residues, 2:1 ratio of fluorescein to molecule of protein
notes: E. coli heat shock sigma factor σ32 (RpoH); also called F-σ32; RpoH
Question: With B1 as the binder, how does the Kd [1] read?
Answer: Its Kd is 0.3 nM.

Question: What about the Kd [2] of the same binder?
Answer: The Kd was 0.8 nM.

Question: And the Kd [3]?
Answer: The Kd was 1.3 nM.

Question: And the Kd [4]?
Answer: Its Kd is 0.6 nM.

Question: And the Kd [5]?
Answer: Its Kd is 2 nM.

Question: And the Kd [6]?
Answer: Its Kd is 2.4 nM.
